Among the targets are HLA-A*3002 (human); HLA-A*2902 (human); HLA-A*0101 (human).
What all share (assay): competition, purified HLA
Where [1] appears, read: remark: other sources report otherwise.

Values joined by “and” are separate entries in the source; they are usually repeats but may differ in a detail not shown here. Identical values can stand only once. Like-named read-outs stand apart in the source and are kept apart here. Bounds are passed on as bounds.

As a reminder, the IC50 is the concentration that inhibits the measured activity by half. In the assay with HLA-A*3002 (human), RVLPPNWKY (modifications not checked) displayed a half-inhibitory concentration (IC50) of 0.003 µM.
Same read-out and setting: for IYGPGPGLIF (modifications not checked) the value was 6.84 µM.
Turning to TLEKITNTELY (modifications not checked), the IC50 in the assay with HLA-A*2902 (human) is 8.4 µM. In other words, the single-digit micromolar range.
Regarding EVDGPGPGY (modifications not checked), the figures for the IC50 with HLA-A*2902 (human) and in the assay with HLA-A*3002 (human) were 25.8 µM and 5.77 µM, respectively.
In the case of FTDLTIVY (modifications not checked), the IC50 in the assay with HLA-A*0101 (human) was 0.016 µM and 0.034 µM; with HLA-A*3002 (human), 39 µM.
For the molecule ATSNYYIVTY (modifications not checked), in the assay with HLA-A*0101 (human), the IC50 amounted to 0.428 µM.
As for YTGPGPGVY (modifications not checked), the values for the IC50 with HLA-A*2902 (human) and with HLA-A*3002 (human) were 2.02 µM and 0.0064 µM, respectively.
For TQDGPGPGY (modifications not checked), the values for the IC50 with HLA-A*2902 (human) and in the assay with HLA-A*3002 (human) were 37.1 µM and 0.541 µM, respectively.
With KYTSFPWL (modifications not checked), the IC50 with HLA-A*2902 (human) is > 172 µM.
Molecule AYSSWMYSY (modifications not checked) registered an IC50 with HLA-A*3002 (human) of 0.0049 µM.
Regarding RQDILDLWVY (modifications not checked), the IC50 in the assay with HLA-A*0101 (human) turned out to be 9 µM; with HLA-A*3002 (human), 0.095 µM.
Turning to WFHISCLTF (modifications not checked), the figures for the IC50 with HLA-A*2902 (human) (setting [1]), in the assay with HLA-A*0101 (human) (setting [1]) and with HLA-A*3002 (human) (setting [1]) were 0.095 µM, 85.3 µM and 75.1 µM, respectively.
Regarding ALFQEYQCY (modifications not checked), the IC50 in the assay with HLA-A*0101 (human) (setting [1]) was > 42 µM.
In the assay with HLA-A*0101 (human), YTAGPGPGY (modifications not checked) yielded a half-inhibitory concentration (IC50) of 0.007 µM.
The same measure, in the same setting: for KTLYQSNPY (modifications not checked) the value was 6.91 µM; for EVGPGPGLY (modifications not checked), 0.05 µM.
On to RSDGPGPGVLY (modifications not checked), for which, in the assay with HLA-A*2902 (human), the IC50 was 13.2 µM.
Regarding AADAAAAKY (modifications not checked), in the assay with HLA-A*0101 (human), the IC50 was 0.02 µM.
The same measure, in the same setting: then RFLSKISEY (modifications not checked), with > 40.3 µM.
Regarding RSDSVGPGPGY (modifications not checked), the IC50 in the assay with HLA-A*2902 (human) amounted to 31.2 µM.
On the same count and under the same terms, for TQDLVQEKY (modifications not checked) the value was 33.3 µM.
With EYRHYNYSLY (modifications not checked), the IC50 is 0.956 µM with HLA-A*2902 (human) and 111 µM with HLA-A*0101 (human).
Take RWGLLLALL (modifications not checked): the values for the IC50 with HLA-A*2902 (human) and with HLA-A*3002 (human) were 61.3 µM and 0.3 µM, respectively.
As to RQAKQHTCY (modifications not checked), the figures for the IC50 with HLA-A*2902 (human) and with HLA-A*0101 (human) were 155 µM and > 135 µM, respectively.
AYGPGPGKF (modifications not checked) gave an IC50 in the assay with HLA-A*2902 (human) of 44.9 µM.
In the assay with HLA-A*0101 (human), ISEYRHYQY (modifications not checked) yielded an IC50 of 0.04 µM.
PTLKEYVLDLY (modifications not checked) displayed an IC50 in the assay with HLA-A*2902 (human) of 0.805 µM. In other words, the sub-micromolar range.
Same read-out and setting: for TQGPGPGKY (modifications not checked) the value was 36.7 µM.
Regarding TLEKLTNTGLY (modifications not checked), the IC50 with HLA-A*2902 (human) (setting [1]) stood at 0.991 µM; with HLA-A*0101 (human) (setting [1]), 0.077 µM.
For FTDLRIVY (modifications not checked), the IC50 with HLA-A*2902 (human) came to 0.813 µM; in the assay with HLA-A*0101 (human), 0.026 µM; in the assay with HLA-A*3002 (human), 8.06 µM.
In turn, IMVLSFLF (modifications not checked) registered an IC50 with HLA-A*3002 (human) of 30 µM.
Still for that read-out and setting: then RISGVDRYY (modifications not checked), with 0.003 µM.

Source of the values: patent US20060079453A1.
